# Data: the RNAGym collection of RNA variant scans (doi:10.7554/elife.90254)
# B1: OR4K15 (parent)
# chain: GUUAACGGUCAUAGGCCAUGGAAACUAGGAGCACCAUUUCGCUGCCAGUGAAGAAAUGAACAAAGAAAAUCUGGGCCAGGCAGGCAUCAAAAGAAAUAGUCUUGCGCUCAACCAGAAAGUCUGUAAUCAUUUUAAGGGUA
# Variants of: B1
# Assay: self-cleavage, relative activity (ratio to wild type); higher = more cleavage; in vitro, sequencing; the parent is a self-cleaving ribozyme
row,Variant,self-cleavage
1,A5G A110G,0.15
2,A5U U127C,1.03
3,A5U G138A,1.71
4,A5U A118G,0.83
5,U9A A52C,2.25
6,A5U A95U,1.76
7,A5G U57C,0.68
8,A5G C113U,0.16
9,A5G U9C,0.82
10,G7A A86G,0.94
11,U9A A90G,1.23
12,A5U A47C,1.29
13,U9A A18G,1.79
14,A5G G119U,1.44
15,C6U A13G,1.29
16,G7A U131G,1.7
17,G7A U131C,1.36
18,C6U G44A,1.34
19,A5G U70C,0.82
20,A5G C107U,0.02
21,C6U A94G,1.68
22,A5G A13G,0.89
23,A5G A13U,0.95
24,U9A G80U,0.2

row,Variant,self-cleavage
1,A5U A18G,1.83
2,G7A A110G,0.11
3,G7A A110C,0.23
4,A5U A60G,0.99
5,A5U A60C,1.78
6,A5G U103C,0.27
7,C6U A27G,2.16
8,C6U U26A,0.53
9,G7A G79A,0.11
10,G7A A68G,1.92
11,U9A A36U,1.2
12,G7U U103C,0.65
13,C6U A11U,1.34
14,U9A G15C,0.57
15,A5G U43C,0.59
16,A5G U43A,1.49
17,G7U C77U,1.9
18,G7C A47U,1.4
19,C6U A52G,0.59
20,A5G A125G,0.42
21,A5U A11G,1.49
22,G8A U9C,1.16
23,A5G U139A,1.6
24,A5G U139C,1.1

row,Variant,self-cleavage
1,G7A A62C,1.41
2,A5G U87C,0.88
3,G7A G74U,0.2
4,C6U U38C,1.48
5,A5G A89G,1.23
6,A5G G104A,0.03
7,G7A U87C,1.25
8,G7U U49C,1.71
9,A5U A66G,1.27
10,G8A U19A,1.92
11,A5G A62G,0.59
12,A5G A56G,0.66
13,C6U G74A,0.46
14,G7U G104A,0.05
15,G8A U120C,1.57
16,G8A U57A,2.18
17,G7A A82U,0.14
18,U9A C77A,0.08
19,U9A A23U,1.59
20,G7A A22U,1.51
21,G7A A22G,1.42
22,G7U A114G,0.16
23,U9A A96G,1.16
24,G7U A18U,0.43

row,Variant,self-cleavage
1,U9A A98G,0.34
2,A5U U49A,1.79
3,U9A A59G,1.12
4,U9A A59U,1.81
5,A5G A140U,1.38
6,G8U A94G,1.98
7,G7A U139C,1.82
8,A5G C121U,1.14
9,A5G C121A,1.89
10,U9A,1.01
11,A5U A23U,1.56
12,A5G A63G,1.21
13,A5G A24G,1.14
14,A5G A24U,0.83
15,C6U U132C,0.63
16,C6U U132A,0.56
17,G7A A69U,1.79
18,A5U U100G,1.03
19,G7A A89G,0.61
20,C6A A64G,1.24
21,A5U U102C,1.69
22,G7U A116U,0.38
23,G8A A60G,1.53
24,G7A A18C,1.98

row,Variant,self-cleavage
1,G7A A18G,0.64
2,C6U U100C,1.18
3,A5U A96G,1.12
4,G7A A64G,1.18
5,C6U A125C,1
6,G8A U133G,2.78
7,C6A U57C,0.36
8,G8A A95G,1.52
9,A5G U38G,1.02
10,G7U A117G,1.7
11,A5G A30U,1.14
12,G7A A66G,1.18
13,U9A A91G,0.37
14,G7A G44U,1.28
15,A5G A52G,1.07
16,A5G A52C,1.39
17,C6U G20U,1.06
18,C6U A135G,2.17
19,U9A A134G,1.66
20,G7U U57C,1.41
21,C6U C77U,0.34
22,G7A U108C,0
23,A5U A68G,0.82
24,G7A A27G,1.3

row,Variant,self-cleavage
1,C6U G80A,0.22
2,A5U A91U,1.64
3,A5U A91G,0.86
4,U9A A118G,0.9
5,C6U A89G,1.13
6,A5G A11U,0.86
7,A5G G80A,0.43
8,G8A C35U,0.52
9,A5G G29C,0.82
10,G7A U72C,0.27
11,G7U A47G,1.17
12,A5G U12C,1.02
13,U9A C42A,0.53
14,A5U U43G,1.19
15,A5U U43C,1.2
16,G8A A55G,2.14
17,A5G G15U,0.82
18,A5U U72A,0.62
19,A5G A78G,0.43
20,A5G A78U,0.46
21,A5G G7A,0.91
22,A5G G7U,1.05
23,A5G G137A,0.6
24,A5U,1.1

row,Variant,self-cleavage
1,A5U A67G,1.6
2,A5U A67U,0.99
3,G7U A135U,2.23
4,G7A A140U,1.62
5,G7U A56G,1.29
6,G7U U39C,0.54
7,A5G A47C,1.22
8,A5G A47G,1.37
9,A5G A27U,0.96
10,G7A C40U,1.81
11,G7U U19C,1.79
12,C6G U100C,0.97
13,A5U U130C,0.85
14,A5U A27G,2.05
15,A5G A55G,1.15
16,G7U A92G,1.66
17,G7A U124C,1.03
18,G8A U102C,2.44
19,G7A A114U,0.06
20,C6A U49C,0.74
21,U9A A55G,0.81
22,C6U U102A,1.22
23,G8A A92G,1.56
